{"source": "patent US20110064819A1", "about": "“ENCAPSULATION OF BIOLOGICALLY ACTIVE AGENTS” (priority 2008, published 2011)", "assay": "HIP extraction of dalargin into the organic phase (LC-MS and Edman sequencing)", "format": "physicochemical", "settings": "docusate sodium in dichloromethane, peptide solution pH 3.05", "description": "A solution of the hexapeptide dalargin was prepared by dissolving 30-60 mg of the peptide into 3 ml of CaCl2 (18.3 mM) and lowering the pH to 3.05 by addition of concentrated HCl (2M). The resulting solution (500 μl, 10-20 mg/ml, and total amount of peptide 5-10 mg) was added to a solution of the HIP agent docusate sodium in dichloromethane (1 ml, 3.058-6.116% w/v) in a 2 ml eppendorf tube. The volume of HIP solution used was twice that of the peptide solution (1 ml HIP solution for 500 μl peptide solution). The molar ratio of HIP:peptide was 10:1 with 5 mg peptide and 5:1 with 10 mg peptide. The organic and aqueous phases were mixed by vortexing at maximum speed for 1 minute. The resulting suspension was then centrifuged to separate the two phases at 20,817 rcf for 50 minutes. The organic layer (containing solubilised peptide) was collected and used to prepare nanoparticles. In order to confirm that the process had been successful at solubilising the peptide into the organic phase, the amount of peptide remaining in the aqueous phase was determined."}
{"substance": "dalargin (YAGFLR; Humanised sequence of mus musculus and homo sapiens) [hexapeptide YAGFLR]", "values": [{"measurement": "Peptide extracted into the organic phase", "value": "at least 99%"}]}
